Data taken from patent publication US20090004214A1 (COMMISSARIAT A L ENERGIE ATOMIQUE, published 2009).
No end group written: not given here.

T1: HLA-DR13 molecule (DRB1*1301) (human)
T1 chain 1: not shown
T1 chain 2: not shown


Columns and labels:
[1] = biological target: T2, HLA-DR7 molecule (DRB1*0701) (human); assay: competitive ELISA, tracer YKL
T2 construct: HLA class II heterodimer

[2] = biological target: T3, HLA-DRB4 molecule (DRB4*0101) (human); assay: competitive ELISA, tracer E2/E168
T3 construct: HLA class II heterodimer

[3] = biological target: T4, HLA-DR3 molecule (DRB1*0301) (human); assay: competitive ELISA, tracer MT 2-16
T4 construct: HLA class II heterodimer

[4] = biological target: T5, HLA-DR13 molecule (DRB1*1301) (human); assay: competitive ELISA, tracer B1 21-36
T5 construct: HLA class II heterodimer

[5] = biological target: T6, HLA-DR15 molecule (DRB1*1501) (human); assay: competitive ELISA, tracer A3 152-166
T6 construct: HLA class II heterodimer

[6] = biological target: T7, HLA-DR1 molecule (DRB1*0101) (human); assay: competitive ELISA, tracer HA 306-318
T7 construct: HLA class II heterodimer

[7] = biological target: T8, HLA-DR4 molecule (DRB1*0401) (human); assay: competitive ELISA, tracer HA 306-318
T8 construct: HLA class II heterodimer

[8] = biological target: T9, HLA-DR11 molecule (DRB1*1101) (human); assay: competitive ELISA, tracer HA 306-318
T9 construct: HLA class II heterodimer

[9] = biological target: T10, HLA-DRB5 molecule (DRB5*0101) (human); assay: competitive ELISA, tracer HA 306-318
T10 construct: HLA class II heterodimer

[10] = biological target: T11, HLA-DRB3 molecule (DRB3*0101) (human); assay: competitive ELISA, tracer LOL 191-210
T11 construct: HLA class II heterodimer

[11] = biological target: T12, HLA-DP401 molecule (DPB1*0401) (human, UniProt P20036 29-222, limits assumed); assay: competitive ELISA, tracer Oxy 271-287
T12 construct: HLA class II heterodimer; also called DP*0401

[12] = biological target: T13, HLA-DP402 molecule (DPB1*0402) (human, UniProt P20036 29-222, limits assumed); assay: competitive ELISA, tracer Oxy 271-287
T13 construct: HLA class II heterodimer; also called DP*0402

[13] = biological target: T1, HLA-DR13 molecule (DRB1*1301) (human); assay: competitive ELISA, tracer B1 21-36
[14] = biological target: T1, HLA-DR13 molecule (DRB1*1301) (human); assay: competitive ELISA, nonbiotinylated peptide vs its biotinylated tracer

| Binder | IC50 [1] | IC50 [2] | IC50 [3] | IC50 [4] | IC50 [5] | IC50 [6] | IC50 [7] | IC50 [8] | IC50 [9] | IC50 [10] | IC50 [11] | IC50 [12] | IC50 [13] | IC50 [14] |
| --- | --- | --- | --- | --- | --- | --- | --- | --- | --- | --- | --- | --- | --- | --- |
| QPFLKDHRISTFKNW (synthetic 15-mer) [survivin peptide 11-25] | 8 µM | 75 µM | 65 µM | 2.41 µM | 0.022 µM | 6 µM | 45 µM | 0.329 µM | 2.26 µM | 3.67 µM | 33 µM | 25 µM | – | – |
| AGFIHCPTENEPDLA (synthetic 15-mer) [survivin peptide 41-55] | 3.73 µM | 0.328 µM | – | – | 7 µM | 2.31 µM | 5 µM | 1.15 µM | 3.38 µM | 10 µM | – | – | – | – |
| KELEGWEPDDDPIEE (synthetic 15-mer) [survivin peptide 62-76] | – | – | – | – | 65 µM | – | – | – | – | 29 µM | – | – | – | – |
| PAWQPFLKDHRISTF (synthetic 15-mer) [survivin peptide 8-22] | 9.39 µM | 29 µM | 16 µM | 2.31 µM | 5.2 µM | 6.57 µM | 46 µM | – | 2.19 µM | 8.72 µM | 21 µM | 10.5 µM | – | – |
| FCFKELEGWEPDDDP (synthetic 15-mer) [survivin peptide 59-73] | 9 µM | – | – | – | 8 µM | 3.76 µM | 58 µM | 1.84 µM | 45 µM | – | – | – | – | – |
| ISTFKNWPFLEGCAC (synthetic 15-mer) [survivin peptide 19-33] | 0.748 µM | 3.12 µM | – | 9.5 µM | 0.081 µM | 0.01 µM | 0.615 µM | 0.147 µM | 3.78 µM | – | 0.032 µM | – | – | – |
| TERVRLVTRHIYNREE (not fully specified) [B1 21-36 peptide (nonbiotinylated)] | – | – | – | – | – | – | – | – | – | – | – | – | 0.609 µM | 0.8 µM |
| KEFEETAKKVRRAIE (synthetic 15-mer) [survivin peptide 122-136] | 20 µM | – | 5.81 µM | 0.995 µM | 1.2 µM | 5.56 µM | – | 0.31 µM | 0.447 µM | – | – | – | – | – |
| FEELTLGEFLKLDRE (synthetic 15-mer) [survivin peptide 93-107] | 2.79 µM | – | – | 7.8 µM | 0.612 µM | 0.128 µM | 5.5 µM | 0.548 µM | 0.529 µM | 45 µM | 0.02 µM | 0.067 µM | – | – |
| DPIEEHKKHSSGCAF (synthetic 15-mer) [survivin peptide 72-86] | – | – | – | 11 µM | – | 95 µM | – | – | 6.2 µM | – | – | – | – | – |
| QCFFCFKELEGWEPD (synthetic 15-mer) [survivin peptide 56-70] | 13 µM | – | – | – | 3 µM | 1.6 µM | – | 0.363 µM | 20 µM | 12 µM | – | – | – | – |
| PTLPPAWQPFLKDHR (synthetic 15-mer) [survivin peptide 4-18] | – | – | – | 40 µM | – | 45 µM | – | – | 5.48 µM | – | 9 µM | 3.59 µM | – | – |
| LSVKKQFEELTLGEF (synthetic 15-mer) [survivin peptide 87-101] | 0.705 µM | 9.8 µM | – | – | 4.8 µM | 0.15 µM | 6.45 µM | 2.06 µM | 6 µM | 6.8 µM | 3.67 µM | 6.39 µM | – | – |
| GEFLKLDRERAKNKI (synthetic 15-mer) [survivin peptide 99-113] | 6.46 µM | 22 µM | 4.67 µM | 9.17 µM | 1.2 µM | 0.048 µM | 2.13 µM | 0.04 µM | 0.022 µM | – | 40 µM | – | – | – |
| HRISTFKNWPFLEGC (synthetic 15-mer) [survivin peptide 17-31] | 0.018 µM | 7.5 µM | – | 0.735 µM | 0.003 µM | 0.019 µM | 9.2 µM | 0.247 µM | 0.302 µM | – | 0.04 µM | 0.029 µM | – | – |
| MGAPTLPPAWQPFLK (synthetic 15-mer) [survivin peptide 1-15] | – | – | – | – | 80 µM | 10.8 µM | – | 0.063 µM | 8 µM | – | 9.2 µM | 6.93 µM | – | – |
| KQFEELTLGEFLKLD (synthetic 15-mer) [survivin peptide 91-105] | 0.056 µM | – | – | – | 3.16 µM | 0.012 µM | 1.59 µM | 2.35 µM | 0.145 µM | 30 µM | 0.011 µM | 0.012 µM | – | – |
| AKKVRRAIEQLAAMD (synthetic 15-mer) [survivin peptide 128-142] | 1.34 µM | 1.8 µM | 12 µM | – | 0.284 µM | – | – | – | – | – | 13 µM | 20 µM | – | – |
| LKLDRERAKNKIAKE (synthetic 15-mer) [survivin peptide 102-116] | 50 µM | – | – | – | – | 7.75 µM | – | 8.94 µM | 0.018 µM | – | – | – | – | – |
| ERMAEAGFIHCPTEN (synthetic 15-mer) [survivin peptide 36-50] | 17 µM | 49 µM | – | – | – | 2.55 µM | 17 µM | 5.59 µM | 3.79 µM | – | 3.62 µM | 3.17 µM | – | – |
| CAFLSVKKQFEELTL (synthetic 15-mer) [survivin peptide 84-98] | 0.179 µM | 1.33 µM | 2.57 µM | 0.845 µM | 0.574 µM | 2.83 µM | 19 µM | 0.01 µM | 1.77 µM | 11.8 µM | 0.167 µM | 0.113 µM | – | – |
| PDLAQCFFCFKELEG (synthetic 15-mer) [survivin peptide 52-66] | 6.67 µM | – | 11.8 µM | 23 µM | 2.25 µM | 4.1 µM | 22 µM | 0.092 µM | 5.35 µM | 12.6 µM | – | 4.58 µM | – | – |
| KNWPFLEGCACTPER (synthetic 15-mer) [survivin peptide 23-37] | 60 µM | – | – | – | – | 0.071 µM | 5.2 µM | 37 µM | 3.42 µM | – | – | 3.7 µM | – | – |
| STFKNWPFLEGCACT (synthetic 15-mer) [survivin peptide 20-34] | 20 µM | 5.5 µM | – | – | – | – | 5.2 µM | – | – | – | – | – | – | – |
| LTLGEFLKLDRERAK (synthetic 15-mer) [survivin peptide 96-110] | 5.64 µM | 3.6 µM | 5.48 µM | 0.302 µM | 0.49 µM | 0.018 µM | 1.67 µM | 0.007 µM | 0.103 µM | – | 2.92 µM | 0.62 µM | – | – |
| KKQFEELTLGEFLKL (synthetic 15-mer) [survivin peptide 90-104] | 0.14 µM | – | – | – | 7.5 µM | 0.04 µM | 0.748 µM | 2.35 µM | 0.28 µM | 48 µM | 0.048 µM | 0.019 µM | – | – |
